# Measured values reported in US12072338B2, “Pharmaceutical peptides for the treatment of inflammatory diseases” (PROTAGONISTS LTD., priority 2007, dated 2024).
# Entries after “also recorded” stand apart in the source; their conditions may differ. Read-outs that look alike come from different tables or passages of the source. Ends that are not written are not given here.
# Experiments:
# [1] = system: healthy, non-disease-induced rats; assay: Effect on healthy, non-disease-induced rats; type: in vivo, rat; details: 30 ug/injection IP on 12 consecutive days
# Method: P15 was injected IP (30 ug/injection) on 12 consecutive days to determine if this anti-inflammatory peptide had any effect at a therapeutic dose on healthy, non-disease-induced rats.
# IL-8 = assay: Micro-array analysis of chemokine binding peptides: IL-8; details: limit = start of the upper 75% of that peptide's response range
# Sequence of IL-8 (P10145 28-99 limits assumed): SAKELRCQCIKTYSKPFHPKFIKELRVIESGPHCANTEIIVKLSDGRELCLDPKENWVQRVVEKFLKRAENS
# In short: (§1)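 Relative Cy3 fluorescence reflects how much recombinant phage (10^7 pfu/μl, 1 h, RT) bound chemokine printed at 25 or 50 μg/ml. Detection used anti-M13 monoclonal followed by Cy3 anti-mouse IgG.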
# Mig = target: T1, Mig (Homo sapiens, UniProt Q07325); assay: Micro-array analysis of chemokine binding peptides: Mig; details: limit = start of the upper 75% of that peptide's response range
# T1 construct: purchased 300-26
# T1 sequence (Q07325 23-125): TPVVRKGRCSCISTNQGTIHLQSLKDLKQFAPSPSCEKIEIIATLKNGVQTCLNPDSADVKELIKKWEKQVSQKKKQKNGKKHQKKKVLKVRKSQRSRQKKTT
# In short: as §1
# I-309 = target: T2, I-309 (Homo sapiens, UniProt P22362); assay: Micro-array analysis of chemokine binding peptides: I-309; details: limit = start of the upper 75% of that peptide's response range
# T2 construct: purchased 300-37
# T2 sequence (P22362 24-96): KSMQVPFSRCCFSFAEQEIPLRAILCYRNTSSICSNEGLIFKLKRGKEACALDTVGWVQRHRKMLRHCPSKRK
# In short: as §1
# MCP-1 = target: T3, MCP-1 (Homo sapiens, UniProt P13500); assay: Micro-array analysis of chemokine binding peptides: MCP-1; details: limit = start of the upper 75% of that peptide's response range
# T3 construct: purchased 300-04
# T3 sequence (P13500 24-99): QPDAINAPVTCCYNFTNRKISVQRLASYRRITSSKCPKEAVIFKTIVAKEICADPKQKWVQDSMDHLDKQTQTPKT
# Method: (§2) (1) Printing: Chemokine (CK) solution (in water) was serially diluted with Print Reagent (GenTel BioSurfaces USA) to final concentrations of 50 μg and 25 μg/ml. BSA/BSA-Biotin control solutions (in water) were diluted with Print Reagent to 100 μg/ml. Amplified stock of M13 phage control (M13KEgIII Cloning Vector, New England Biolabs, Cat.No.E8101S) was stored in Tris Buffered Saline (TBS; pH7.5, 4° C.) and diluted with Print Reagent to the working titre (10^8 pfu/μl). An automated spotting robot (16 pin print tool, 0.4 mm head; BioRobotics, UK) was used to print the CK/BSA control/M13 control, 5 repeats per sample (CK 25 μg/ml and 50 μg/ml; BSA 100 μg/ml; M13 20 μl), on PATH Protein Microarray Slides (GenTel, Prod.No. 2-1005/-1025) at […], and 50-70% relative humidity. Printed micro-array slides were stored at Room Temperature (RT) or 4° C. for at least 24 h before use.
# (§3) (2) Blocking: Block Buffer (500 μl/partition; PATHblock, GenTel, Prod.No. 2-1014) was applied to the slide for 1 hour at room temp (RT). After removal of Block Buffer, the slide was air dried for 25 minutes;
# (§4) (3) Phage Presented Peptide Binding: Amplified recombinant phage stock was stored in TBS and diluted with Wash Buffer to working titer (10^7 pfu/μl). Recombinant phage suspension (300 μl) was applied per partition and incubated at RT for 1 hour with gentle agitation.
# (§5) (4) First Washing: The slides were washed twice with Wash Buffer 300 μl/partition).
# (§6) (5) Primary Antibody (Ab) Labeling: The slides were incubated with the Primary Ab (1 mg/ml diluted ×2500 (Wash Reagent), 300 μl; Mouse Anti-M13 monoclonal Ab; Amersham Biosciences, UK; Product Code 27-9420-01) for 45 minutes at RT.
# (§7) (6) Second Washing: The slides were washed twice with Wash Buffer (300 μl/partition).
# (§8) (7) Secondary Ab Labeling: The slides were incubated with Secondary Ab (1.5 mg/ml diluted ×5000 (Wash Reagent), 300 μl; Cy3-conjugated AffiniPure Goat Anti-Mouse IgG; Jackson ImmunoReserch Labs, USA; Product Code 115-165-062).
# (§9) (8) Third Washing: The slides were washed twice with Wash Buffer (300 μl/partition).
# (§10) (9) Rinse: the slides were rinsed twice with Rinse Buffer (PATHrinse, GenTel, Prod.No. 2-1018) then dried well.
# (§11) (10) Scanning: The peptide-bound, labeled slide was scanned (Laser Intensity 80%, Gain 80%, Resolution 10 μm) with a ScanArray Life Scanner (Packard BioChip Technologies, USA).
# (§12) (11) Analysis: Quantitative analysis of micro-array was performed by the SpotReader program of Niles Scientific (USA) and presented as Relative Fluorescence (RF) as a function of CK concentration. Micro-array readout (Cy3 fluorescence) was quantified to determine the relative binding affinities of a CBP for the CKs and by inference, the specificity of the CBP for binding to a CK.
# MCP-4 = target: T4, MCP-4 (Homo sapiens, UniProt Q99616); assay: Micro-array analysis of chemokine binding peptides: MCP-4; details: limit = start of the upper 75% of that peptide's response range
# T4 construct: purchased 300-24
# T4 sequence (Q99616 17-98): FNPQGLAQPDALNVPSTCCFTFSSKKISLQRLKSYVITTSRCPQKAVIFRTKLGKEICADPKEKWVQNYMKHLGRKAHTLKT
# In short: as §1
# RANTES = target: T5, RANTES (Homo sapiens, UniProt P13501); assay: Micro-array analysis of chemokine binding peptides: RANTES
# T5 construct: purchased 300-06
# T5 sequence (P13501 24-91): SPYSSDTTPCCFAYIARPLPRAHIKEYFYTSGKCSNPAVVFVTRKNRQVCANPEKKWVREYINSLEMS
# In short: as §1
# Eotaxin = target: T6, Eotaxin (Homo sapiens, UniProt P51671); assay: Micro-array analysis of chemokine binding peptides: Eotaxin; details: limit = start of the upper 75% of that peptide's response range
# T6 construct: purchased 300-21
# T6 sequence (P51671 24-97): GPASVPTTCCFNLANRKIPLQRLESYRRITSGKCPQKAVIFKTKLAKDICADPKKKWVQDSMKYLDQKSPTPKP
# In short: as §1
# Eotaxin 3 = target: T7, Eotaxin 3 (Homo sapiens, UniProt Q9Y258); assay: Micro-array analysis of chemokine binding peptides: Eotaxin 3; details: limit = start of the upper 75% of that peptide's response range
# T7 construct: purchased 300-48
# T7 sequence (Q9Y258 24-94): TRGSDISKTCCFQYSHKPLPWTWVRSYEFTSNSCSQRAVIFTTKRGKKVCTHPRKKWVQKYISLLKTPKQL
# In short: as §1
# SDF1-α = target: T8, SDF1-α (Homo sapiens, UniProt P48061); assay: Micro-array analysis of chemokine binding peptides: SDF1-α
# T8 construct: purchased 300-28a
# T8 sequence (P48061 22-89 limits assumed): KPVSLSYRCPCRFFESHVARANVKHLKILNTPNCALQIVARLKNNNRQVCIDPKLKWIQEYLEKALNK
# Method: as §2, §3, §4, §5, §6, §7, §8, §9, §10, §11, §12
# SDF1-β = target: T9, SDF1-β (Homo sapiens, UniProt P48061); assay: Micro-array analysis of chemokine binding peptides: SDF1-β
# T9 construct: purchased 300-28b
# T9 sequence (P48061 22-93): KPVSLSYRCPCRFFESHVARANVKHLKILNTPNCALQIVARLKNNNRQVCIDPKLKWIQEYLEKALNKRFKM
# In short: as §1
# TECK = target: T10, TECK (Homo sapiens, UniProt O15444); assay: Micro-array analysis of chemokine binding peptides: TECK
# T10 construct: purchased 300-45
# T10 sequence (O15444 24-150): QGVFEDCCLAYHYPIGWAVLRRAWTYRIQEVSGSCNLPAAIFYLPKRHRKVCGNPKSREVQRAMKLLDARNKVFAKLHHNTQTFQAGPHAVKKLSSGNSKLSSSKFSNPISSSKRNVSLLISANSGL
# In short: as §1
# Fractalkine = target: T11, Fractalkine (Homo sapiens, UniProt P78423); assay: Micro-array analysis of chemokine binding peptides: Fractalkine
# T11 construct: purchased 300-31
# T11 sequence (P78423 25-100 limits assumed): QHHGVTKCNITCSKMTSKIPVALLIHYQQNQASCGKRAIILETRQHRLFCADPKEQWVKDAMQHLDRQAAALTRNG
# In short: as §1
# MIP3-α = target: T12, MIP3-α (Homo sapiens, UniProt P78556); assay: Micro-array analysis of chemokine binding peptides: MIP3-α
# T12 construct: purchased 300-29A
# T12 sequence (P78556 27-96): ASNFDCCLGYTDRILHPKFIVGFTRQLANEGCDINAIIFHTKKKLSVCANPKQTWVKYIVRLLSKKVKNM
# Method: as §2, with “use. […]” for “use.”
# as §12
# Exodus-2 = target: T13, Exodus-2 (Homo sapiens, UniProt O00585); assay: Micro-array analysis of chemokine binding peptides: Exodus-2
# T13 construct: purchased 300-35
# T13 sequence (O00585 24-134): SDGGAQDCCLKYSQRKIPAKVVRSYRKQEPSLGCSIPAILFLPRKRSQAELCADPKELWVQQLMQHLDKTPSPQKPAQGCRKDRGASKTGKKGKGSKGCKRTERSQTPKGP
# In short: as §1
# SDF1 = assay: Micro-array analysis of chemokine binding peptides: SDF1 (isoform not given)
# Sequence of SDF1 (P48061 22-89 limits assumed): as the sequence (P48061 22-89 limits assumed) above
# Method: as §2, §3, §4, §5, §6, §7, §8, §9, §10, §11, §12
Substance,physiological or behavioral effect on healthy rats [1],binding to IL-8 with relatively high affinity (Relative Fluorescence Units) (IL-8),binding to Mig with relatively high affinity (Relative Fluorescence Units) (Mig),binding to I-309 with relatively high affinity (Relative Fluorescence Units) (I-309),binding to MCP-1 with relatively high affinity (Relative Fluorescence Units) (MCP-1),binding to MCP-4 with relatively high affinity (Relative Fluorescence Units) (MCP-4),"binding to RANTES, stated in words (RANTES)",binding to RANTES with relatively high affinity (Relative Fluorescence Units) (RANTES; limit = start of the upper 75% of that peptide's response range),binding to Eotaxin with relatively high affinity (Relative Fluorescence Units) (Eotaxin),binding to Eotaxin 3 with relatively high affinity (Relative Fluorescence Units) (Eotaxin 3),"binding to SDF1-α, stated in words (SDF1-α)","binding to SDF1-β, stated in words (SDF1-β)","binding to TECK, stated in words (TECK)","binding to Fractalkine, stated in words (Fractalkine)","binding to Fractalkine, stated in words (Fractalkine; listed as P5)","binding to MIP3-α, stated in words (MIP3-α)","binding to Exodus-2, stated in words (Exodus-2)","binding to SDF1 (isoform not given), stated in words (SDF1)"
"WVFGSGLCK [Ph-p15, WVFGSGLCK]",no apparent effect; also recorded: no obvious physiological or behavioral effect,–,–,–,–,–,–,–,–,–,–,–,–,–,–,–,–,–
LFGNDCE [CBP5],–,"> 2,500 RFU","> 2,500 RFU","> 2,500 RFU","> 2,500 RFU","> 2,500 RFU",bound specifically and differentially,"> 2,500 RFU","> 2,500 RFU","> 2,500 RFU",bound,bound,bound,bound,bound specifically and differentially,bound,bound,bound specifically and differentially
